We go through 41 sequences from the nanobody polyreactivity screen of Harvey et al. (2022).

The nature of this data set: yeast display, Sf9 membrane polyspecificity reagent, FACS + sequencing; frameworks hold sequencing errors. Put shortly:
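Galactose induction of a Saccharomyces cerevisiae BJ5465 synthetic nanobody display library ran 36–48 hours. The cells were then stained for 1 hour at 4 °C with 10% biotinylated, detergent-solubilized Sf9 membrane reagent, pulled down on streptavidin microbeads and FACS-sorted into low and high (top ~1%) gates on expression and reagent-binding fluorescence. Labels for polyreactivity follow the gate of origin.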
With “QVQLVESGGGLVQAGGSLRLSCAASGSILSYYAMGWYRQAPGKERELVAAISSTGSTNYADSVKGRFTISRDNAKNTLYLQMNSLKPEDTAVYYCATDGDPYADEGGYWGQGTQVTVSS”, the “polyreactivity (PSR sort gate)” value is “high polyreactivity”. The same measure for “QVQLVESGGGLVQAGGSLRLSCAASGSILTAYAMGWYRQAPGKERELVAAISRGDITKYADSVKGRFTISRDNAKNTVYLQMNRLKPEDTAVYYCAARVPRYSDSTRGRADYYWGQGTQVTVSS”: “high polyreactivity”; for “QVQLVESGGGLVQAGGSLRLSCAASGSILTDNAMGWYRQAPGKERELVASITGSGGSTYYADSVKGRFTISRDNAKNTVYLQMNSLKPEDTAVYYCAASYRLRYGYWGQGTQVTVSS”: “high polyreactivity”; for “QVQLVESGGGLVQAGGSLRLSCAASGSILTDNAMRWYRQAPGKERELVAAITSGGYTYYADSVKGRFTISRDNAKNTVYLHMNILKPEDTAVYYCNADPYTYSYGMYYWGQGTQVTVSS”: “low polyreactivity”.

For “QVQLVESGGGLVQAGGSLRLSCAASGSILTYNAMGWYRQAPGKERELVAAITSSGNTNYADSVKGRFTISRDNAKNTVYLQMNSLKPEDTAVYYCARDLREWGQGTQVTVSS”, the “polyreactivity (PSR sort gate)” value is given as “low polyreactivity”. The result for “QVQLVESGGGLVQAGGSLRLSCAASGSILWENAMGWYRQAPGKERELVATISVSGGGTYYADSVKGRFTISRDNAKNTVYLQMNSLKPEDTAVYYCAAPGFPSRNGFGYWGQGTQVTVSS” reads “low polyreactivity”; that for “QVQLVESGGGLVQAGGSLRLSCAASGSILWEYAMGWYRQAHGKERELVATISSGGCSTNYADSVKGRFTISRDNAKHNFYLPMKSLKPEDTAVYYCNALTSYLVTYEFDSWGIGTQVTVSS”, “low polyreactivity”; that for “QVQLVESGGGLVQAGGSLRLSCAASGSILWLNAMGWYRPAPGKERELVADITRGGSTYYADSVKGRFTISRDNAKNTVYLQMNSLKPEDTAVYYCAADAYTGQIPYYYFEHYYWGQGTQVTVSS”, “high polyreactivity”. Turning to “QVQLVESGGGLVQAGGSLRLSCAASGSILWQYAMGWYRQAPGKERELVAAISTGGSTYYAESVKGRFTISRDNAKNTVYLQMNSLKPEDTAVYYCAAYVDYSVYFGGGYWGQGTQVTVSS”, the “polyreactivity (PSR sort gate)” value is given as “low polyreactivity”. The result for “QVQLVESGGGLVQAGGSLRLSCAASGSILYFNAMGWYRQAPGKERELVAAISRTGSRTYYADSVKGRFTISRDNAKNTVYLQMNSLKPEDTAVFYCAAYNGITSHLRFDYWGQGTQVTVSS” reads “high polyreactivity”. Take “QVQLVESGGGLVQAGGSLRLSCAASGSILYIYAMGWYRQAPGKERELVAAISKNSADTYYADSVKGRFTISRDNAKNTVYLQMNSLKPEDTAVYYCAADVVKVAAYNYWGQGSQVTVSS”: the “polyreactivity (PSR sort gate)” value was “low polyreactivity”. The result for “QVQLVESGGGLVQAGGSLRLSCAASGSILYIYAMGWYSQAPGKERELVASINSGGSTNYADSVKGRFTISRDNAKNTVYLQMNSLKPEDTAVYYCNADTIPDGEDRYDYWGQGTQVTVSS” reads “low polyreactivity”; that for “QVQLVESGGGLVQAGGSLRLSCAASGSILYPYAMGWYRQAPGKERELVAAISRGGSTNYADSVKGRFTISRDNAKNTVYLQMNSLKPEDTAVYYCATAYTRFSQRYEYYVIYWQNDYWGQGTQVTVSS”, “low polyreactivity”. With “QVQLVESGGGLVQAGGSLRLSCAASGSILYRYTMGWYIQAPGKERELVAAITKRGGRTYYADSVKGRFTISRDTAKNTVYLQMNSLKREDTAVYYCAAKYYTGGSFEMYYWGQGTQVTVSS”, the “polyreactivity (PSR sort gate)” value is “high polyreactivity”. For “QVQLVESGGGLVQAGGSLRLSCAASGSILYRYTMGWYRQAPGIERELVAAITKRGGRTYYADSVKGRFTISRDNAKNTVYLQTNSLKPEDTAVYYCAAKYYTGGSFEMYYWGQGTQVTVSS”, the “polyreactivity (PSR sort gate)” value is on record as “high polyreactivity”. As to “QVQLVESGGGLVQAGGSLRLSCAASGSILYTNAMGWYRQAPGKERELVAAITTSGASTYYADSVKGRFTISRDNAKNTVYLQMNSLKPEDTAVYYCAATDYFPYDTYYAHDYWGQGTQVTVSS”, the “polyreactivity (PSR sort gate)” value was “high polyreactivity”. On to “QVQLVESGGGLVQAGGSLRLSCAASGSILYVNAMGWYRQATGKERELVAAITRTGGSTYYADSVKGRFTISRDNAKNTVYLQMNSLKPEDTAVYYCNAASSLPGYDYWGQGTQVTVSS”, for which the “polyreactivity (PSR sort gate)” value is “high polyreactivity”. For the sequence “QVQLVESGGGLVQAGGSLRLSCAASGSILYVYALAWYRQAPGKERALVAAIYSGASTYYADSVKGRFTISPDNAKNTVYFQMNSLIPEETAVYYCAAYVFFQTYFSYYVEGDYWGQGTQVTVSS”, the “polyreactivity (PSR sort gate)” value is listed as “low polyreactivity”. The result for “QVQLVESGGGLVQAGGSLRLSCAASGSILYVYAMGRYRQAPGKERELVAAISGSGGSTYYADSVKGRFTISRDNAKNTVYLQMNSLKPEDTAVYYCAADYATVTWRGIAYDYWGLGTQVTVSS” reads “low polyreactivity”; that for “QVQLVESGGGLVQAGGSLRLSCAASGSILYWYAMGWYRQAPGKERELVAAITSSGDSTDYADSVKGRFTISRDNAKKTVYLQMNILKPEDSAVYYCNVQPVYADHFTEFDYCGQGTQVTVSS”, “low polyreactivity”. The result for “QVQLVESGGGLVQAGGSLRLSCAASGSILYYAMGWYRQAPGKERELVATITRGGSTYYADSVKGRFTISRDNAKNTVYLQMNSLKPDDTAVYYCAARRAVRVGYYWHDISSYDYWGQGTQVTVPS” reads “low polyreactivity”; that for “QVQLVESGGGLVQAGGSLRLSCAASGSINYYAMGWYRQAPVKERELVAAITRSGGGTYYADSVKGRFTISRDNAMNTVYLQMNSLIPEDTAVYYCAAARYSRAQPNWTYNYWGQGTQVTVSS”, “high polyreactivity”; that for “QVQLVESGGGLVQAGGSLRLSCAASGSISAIYTMGWYRQATGKERELVAAITGSAGSTYADSVKGRFTISRDNAKNTVYLQMNSLKPEDTAVYYCNAQPGDDVKVKLDYWGQGSQVTVSS”, “low polyreactivity”. The same measure for “QVQLVESGGGLVQAGGSLRLSCAASGSISAVNTMGWYRQAPGKERELVATISYSTASTYYADSVKGRFTISRDNAKITVYLQMNCLKPEDTAVYFCAADAYFDTWYDYWGQGTQVTVSS”: “low polyreactivity”. In the case of “QVQLVESGGGLVQAGGSLRLSCAASGSISETNAMGWYRQAPGKERELVAAISGSGGSTYADSVKGRFTISRDNAKNTVYLQMNSLKPEDTAVYYCARDRYYTREWYWYRHDHWGQGTQVTVSS”, the “polyreactivity (PSR sort gate)” value is given as “low polyreactivity”.

In the case of “QVQLVESGGGLVQAGGSLRLSCAASGSISGLYAMGWYRQATGKERELVAAITFRDGTTSYADSVKGRFTISRDNAKNTVYLQMNSLKPEDTAVYYCAAVDRDSNSSVPTLDHWGQGTQVTVSS”, the “polyreactivity (PSR sort gate)” value is “low polyreactivity”. The result for “QVQLVESGGGLVQAGGSLRLSCAASGSISGRYAMGWSRQAPGKEMELVAAISWIGGSTYYADSVKGRFTISRDNAKNTVYLQMISLKPEDTAVYYCYVTIDTRTDPLLVVLYGYDYWGQGTLVTVSS” reads “low polyreactivity”. In the case of “QVQLVESGGGLVQAGGSLRLSCAASGSISGWYAMGWYRQAPGKERELVADISSIAGSTYYADSVKGRFTISRDNAKNTVYLQMNSLKPEDTAVYYCAADRGFYYEYDYWGQGTQVTVSS”, the “polyreactivity (PSR sort gate)” value was “low polyreactivity”. The result for “QVQLVESGGGLVQAGGSLRLSCAASGSISGYYAMGWYRQAPGKERELVASIRYTGARTYYADSVKGRFTISRDNAKNTVYLQMNSLKPEDTAVYYCNARVDWGWPGYEYDYWGQGTQVTVSS” reads “low polyreactivity”; that for “QVQLVESGGGLVQAGGSLRLSCAASGSISKINAMGWYRQAPWKERELVAAINTGDSTYYADSVKGRFTISRDNAKNTVYLLMNSLKPEDTAVYYCAAECSPTGYDYWGQGTQVTVSS”, “low polyreactivity”; that for “QVQLVESGGGLVQAGGSLRLSCAASGSISPVYAMGWYRQAPGKERELVAAYADSVKGRFTISRDNAKNTVYLQMNSLIPEDTAVYYCNVVETSQELGWQAFDYWGQGTQVTVSS”, “low polyreactivity”. For “QVQLVESGGGLVQAGGSLRLSCAASGSISTPYTMGWYRQAPGKERELVAAISWIGDTTSYADSVKGRFTISRDNAKNTVYLQMHSLKPEETAVYYCNAEHRGYDYWGQGTQVTVSS”, the “polyreactivity (PSR sort gate)” value was “low polyreactivity”. The same measure for “QVQLVESGGGLVQAGGSLRLSCAASGSISTVYAMGWYRQAPGKEMELVAAISWSGGSTYYADSVKGRFTISRDNAKNTVYLQMNSLKPEDTAVYYCAAEGYLVGSRWGPRYGDYWGQGTQVTVSS”: “high polyreactivity”; for “QVQLVESGGGLVQAGGSLRLSCAASGSISVANAMGWYRQAPGKERELVAAITDSGDDTYYADSVKGRFTISRDTAKNTVYLQMNSLKPEDTAVYYCAVEAWSVPPYDYWGQGTQVTVSS”: “low polyreactivity”. Regarding “QVQLVESGGGLVQAGGSLRLSCAASGSISVFYAMGWYRQAPGKEREFVAAISWRGGRTYYEDSVKARFTISRDNANNTVYLQMNSLKPEDTAVYYCAKDIVRGRSSRYDYWGQGTQVTVSS”, the “polyreactivity (PSR sort gate)” value is “high polyreactivity”. In the case of “QVQLVESGGGLVQAGGSLRLSCAASGSISVLNAMGWYRQAPGKERELVAAISRSGTRTYYADSVKGRFTLSRDNAKNTVYLQMNSLKPEDTAVYYCNALHRARLFGHYPYESWGQGTQVTVSS”, the “polyreactivity (PSR sort gate)” value is reported as “high polyreactivity”. The result for “QVQLVESGGGLVQAGGSLRLSCAASGSISVRNVMGWYRQAPGKERELVATIRRTGGSTSYADSVKGRFTISRDNAKNTVYLQLNSLKPEDTAVYDCADVRYTTYRRYEYWGQGTQVTVSS” reads “low polyreactivity”; that for “QVQLVESGGGLVQAGGSLRLSCAASGSISVVNMGWYRQAPGKERELVASITSSGSTTYADSVKGRFTISRDNAKNTVYLQMNSLKPEDTAGYYCAASSTGYGGSTYYYWGQGTQVTVSS”, “low polyreactivity”. The same measure for “QVQLVESGGGLVQAGGSLRLSCAASGSISYRYDMGWYRQSPGKERELVATIRSGGSTNYADSVKGRFTISRDNAKNTVYLQMNSLKPEDTAVYYCAARLYARKKLHFSADSDYWGQGSQVTVSS”: “low polyreactivity”.

For the sequence “QVQLVESGGGLVQAGGSLRLSCAASGSIVGIYVMGWYRQAPGKERELVAGISPRGGSTYYADSVKGRFTISRDYAKNTVYLQMNSLKPEDTAVYYCAAVPASFRYPMYYLGQGTQVTVSS”, the “polyreactivity (PSR sort gate)” value is “low polyreactivity”. The result for “QVQLVESGGGLVQAGGSLRLSCAASGSIVKHYAMGWYRQAPGKERKLVATITRSGRTNYADSVKGRFTISRDNAKNTVYLQMNSLKPEDTAVYYCNTVRGGQSPHPVRYGYWGQGTQVTVSS” reads “high polyreactivity”.
